The results in this text go back to patent US20220056084A1 (CONSEJO SUPERIOR DE INVESTIGACIONES CIENTIFICAS CSIC, published 2022).

This data set deals with the molecule itself. The experiment in a line: gel filtration and sedimentation velocity (self-association). Background: In gel filtration, larger molecules generally elute earlier.

B1: H10-LOV543m3-WH1 (other)
chain: MGSSHHHHHHHHHHSSGLVPRGSLATTLERIEKNFVITDPRLPDNPIIFASDSFLQLTEYSREEILGRNCRFLQGPETDRATVRKIRDAIDNQTEVTVQLINYTKSGKKFWNLFHLQPMRDQKGDVQYFIGVQLDGTEHVRDAAEREAVMEAKKTAENIDEAAKLIESSHTLTLNEKRLVLCAASLIDSRKPLPKDGYLTIRADTFAEVFGIDVKHAYAALDDAATKLFNRDIRRYVKGKVVERMRWVFHVKYREGQGCVELGFSPTIIPHLTMLHKEFTSYQLK
notes: Chimera of Avena sativa LOV2 (G528A, L531E, I532A) and wild-type RepA-WH1; carries the FMN chromophore; Dimer in solution; also called LOV2m3-WH1; LOV543-WH1m3; not shown: N-terminal His10 tag peptide
On to B1, for which the binding result is listed as “binds”.
